For experiment [1], the target named is Fc-tagged human FGFR1c ectodomain (human) (UniProt P11362). Description: plate assay: 100 ng FGF23 coated, 400 ng purified sKL-N694Q or wildtype, then 200 ng Fc-FGFR1c (FIG. 25F).
In experiment [2] the target is Fc-tagged human FGFR4 ectodomain (human), P22455. The experiment can be described thus: SPR (BIAcore T200): Fc-FGFR4 amine-coupled to the chip, FGF23 injected at 1000-63 nM, 25 °C. The following applies: remark: other sources report otherwise. On the technique in general: SPR reads the build-up and loss of mass on a sensor chip optically.
For experiment [3] the target is unchanged. Description: SPR: Fc-FGFR4 on the chip, FGF23 with sKL (human ectodomain, self-made) in solution (FIG. 11F). The note with it: remark: other sources report otherwise.
For experiment [4] the target is unchanged. Description: SPR: Fc-FGFR4 on the chip, FGF23 with sKL or heparin in solution. The following applies: remark: other sources report otherwise.
Experiment [5] shares this target. Description: SPR: Fc-FGFR4 on the chip, FGF23 with heparin in solution (FIG. 11E). The note with it: remark: other sources report otherwise.

The results in this text go back to patent US20240384250A1, “FIBROBLAST GROWTH FACTOR 23 MODULATING COMPOUNDS” (THE UAB RESEARCH FOUNDATION, priority 2021, published 2024).

Fc-tagged human FGFR4 ectodomain (human), P22455, sequence (P22455 22-369): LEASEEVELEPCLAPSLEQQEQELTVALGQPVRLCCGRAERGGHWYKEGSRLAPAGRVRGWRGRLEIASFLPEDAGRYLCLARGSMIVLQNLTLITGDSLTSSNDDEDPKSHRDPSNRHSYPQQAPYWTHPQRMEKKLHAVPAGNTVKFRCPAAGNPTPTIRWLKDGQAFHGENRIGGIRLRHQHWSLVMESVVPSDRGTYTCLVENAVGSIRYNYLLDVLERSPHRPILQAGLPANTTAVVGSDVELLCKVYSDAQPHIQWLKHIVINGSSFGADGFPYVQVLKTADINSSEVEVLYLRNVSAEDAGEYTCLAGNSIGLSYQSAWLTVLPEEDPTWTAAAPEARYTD
Fc-tagged human FGFR1c ectodomain (human), sequence (P11362 22-376 limits assumed): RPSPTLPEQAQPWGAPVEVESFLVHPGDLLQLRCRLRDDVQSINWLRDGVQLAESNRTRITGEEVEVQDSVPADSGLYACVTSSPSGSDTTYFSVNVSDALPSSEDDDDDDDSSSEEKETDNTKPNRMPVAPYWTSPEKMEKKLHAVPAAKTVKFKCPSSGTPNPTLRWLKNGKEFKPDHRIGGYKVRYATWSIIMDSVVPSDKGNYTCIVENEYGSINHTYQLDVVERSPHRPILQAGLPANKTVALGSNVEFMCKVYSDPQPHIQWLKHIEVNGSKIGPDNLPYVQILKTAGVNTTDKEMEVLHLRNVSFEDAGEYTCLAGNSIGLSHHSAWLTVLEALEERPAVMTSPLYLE

B1: complex of FGF23 and sKL-N694Q (protein, part only; not given: FGF23 and C-terminal FLAG/His tag, not shown: small tags and cut ends)
chain: EPGDGAQTWARFSRPPAPEAAGLFQGTFPDGFLWAVGSAAYQTEGGWQQHGKGASIWDTFTHHPLAPPGDSRNASLPLGAPSPLQPATGDVASDSYNNVFRDTEALRELGVTHYRFSISWARVLPNGSAGVPNREGLRYYRRLLERLRELGVQPVVTLYHWDLPQRLQDAYGGWANRALADHFRDYAELCFRHFGGQVKYWITIDNPYVVAWHGYATGRLAPGIRGSPRLGYLVAHNLLLAHAKVWHLYNTSFRPTQGGQVSIALSSHWINPRRMTDHSIKECQKSLDFVLGWFAKPVFIDGDYPESMKNNLSSILPDFTESEKKFIKGTADFFALCFGPTLSFQLLDPHMKFRQLESPNLRQLLSWIDLEFNHPQIFIVENGWFVSGTTKRDDAKYMYYLKKFIMETLKAIKLDGVDVIGYTAWSLMDGFEWHRGYSIRRGLFYVDFLSQDKMLLPKSSALFYQKLIEKNGFPPLPENQPLEGTFPCDFAWGVVDNYIQVDTTLSQFTDLNVYLWDVHHSKRLIKVDGVVTKKRKSYCVDFAAIQPQIALLQEMHVTHFRFSLDWALILPLGNQSQVNHTILQYYRCMASELVRVNITPVVALWQPMAPNQGLPRLLARQGAWENPYTALAFAEYARLCFQELGHHVKLWITMNEPYTRQMTYSAGHNLLKAHALAWHVYNEKFRHAQNGKISIALQADWIEPACPFSQKDKEVAERVLEFDIGWLAEPIFGSGDYPWVMRDWLNQRNNFLLPYFTEDEKKLIQGTFDFLALSHYTTILVDSEKEDPIKYNDYLEVQEMTDITWLNSPSQVAVVPWGLRKVLNWLKFKYGDLPMYIISNGIDDGLHAEDDQLRVYYMQNYINEALKAHILDGINLCGYFAYSFNDRTAPRFGLYRYAADQFEPKASMKHYRKIIDSNGFPGPETLERFCPEEFTVCTECSFFHTRKS
B1 came in with a fold increase in formation of the trimeric FGF23/FGFR1c/sKL complex against wildtype sKL in experiment [1] of 3 fold.

B2: human FGF23, Q9GZV9 25-251 (ligand, UniProt Q9GZV9 25-251, looked up)
chain: YPNASPLLGSSWGGLIHLYTATARNSYHLQIHKNGHVDGAPHQTIYSALMIRSEDAGFVVITGVMSRRYLCMDFRGNIFGSHYFDPENCRFQHQTLENGYDVYHSPQYHFLVSLGRAKRAFLPGMNPPPYSQFLSRRNEIPLIHFNTPIPRRHTRSAEDDSERDPLNVLKPRARMTPAPASCSQELPSAEDNSPMASDPLGVVRGGRVNTHAGGTGPEGCRPFAKFI
On to B2, for which, in experiment [2], the Kd (as a rule, a measure of binding affinity in units of concentration) was 320 nM; the koff (as a rule, the rate constant with which the complex falls apart) was 0.04 s⁻¹; the kon (usually the second-order rate constant of association) amounted to 120000 M⁻¹ s⁻¹. The fold increase in binding affinity in the presence of sKL in experiment [3] is 13 fold. Further, the fold, effect of sKL on FGFR4 affinity for FGF23 against that of heparin in experiment [4] lay in the range of 4 to 5 fold. Also, the fold increase in binding affinity in the presence of heparin in experiment [5] amounted to 3 fold.
